# Test: soluble on expression in E. coli; label from the status in PepcDB or PDB records
row,Sequence,soluble on expression in E. coli
1,MDELFTESAKAVLAIAQEEAKYFRHQSVGSEHLLLALVLEPNGIAGKTLRQLNTDTEDIREEIEHLSGYGTMQSPMGNNNLYLPYSPRAKQIFAYAGDEAKRLGAQKIGTEHLLLGLLRDEEILASRILVNLGLSLSKMRQLLLKKMG,soluble
2,MAHHHHHHMSSNDGLSEDTVMYIKDNNIGQLMEYILRCIITDKPTKPLEYVHELTASPLPPRVVLAGPPASGKGTQARHICSYYKRAIGKKPVHVSSGDLLRAEVAQGTHLGKIAENFMQRGELVPDSLIISIIRNRLTQEDAVMNGWLLDGFPRTRSQAIALDAAGLCPRIFVVLDTPDDVLFGRVEGRRTDPVTGIIYHLKYNPPPENDTALLERLQHRDDDTREVLGPRLETYHSMVEGLLDYYGSIMYHVDGNRPEAAITKDITEYLQNHNVA,soluble
3,MNVACPALLIAGPASGQGKTTLTAALARHHVRQGRRVRVFKVGPDFLDPMLLQAASGQPVYQLDLWLVGEDQCRSLLFEAARSADLILIEGVMGLFDGTPSAADLAQTFGVPVLAVIDASGMAETFGAVAHGLATHRPGLPFAGVVANRVASPGHADRLRASLPGAIPFRGAFFRQPDAGFPDRHLGLVQAPELGDLDRRLDTLADAVAGTGLADLPDSVPFAPESAAVPPRLLEGVRIGIARDAAFSFLYPANLDLLRAMGATPVFFSPLGDRSLPEVDSVYLPGGYPELHLDTLAGNGGMKESLREHVAAGKPLLAECGGLLYLLEELADQNGRTSAMCGILPGRAKMQTRLAGLGLQSAAFRSGTLRAHTFHYSRLETPLSPLLMAERRRGGSAGEAVYRQGRLTASYLHWYLPSCPEAAAELLRPLEHHHHHH,soluble
4,MGSDKIHHHHHHMKKEADMIHPIANAPCSWGVDDPKNPNLPAWATVLKEAAQAGYRSIELGPWGYLPSDPASLRAALEQHQLSLVAGTIFDDLVSEAHFPTLVALTHQICRNLSQVAAAEPIPGRPFQPPYLVIIDFGNPERARFAGRGALAPRLNDKDWQRMMEHIIALSTLAWQEYGVRAVIHPHAGGSIEFADEIERLANDIPHDVAGLCLDTGHLYYAGMDPLDWLDRYYHRLDYLHFKDVDPQVYQRAIHEGIDFFTACAEGVMCPLGSGAIDYPAIKDFLARRGYQGWITIEQERDPRHAAGSLQAVTESLRYLRDVGF,not soluble
5,MGSDKIHHHHHHMITTDSGEQVEALAPIIISASRSTDIPAFYAKWFFNRLAKGYCVWYNPFNRRKMYVSFERCKAIVFWTKNPKLILPYLHELDRRGIHYYFQFTLNDYVSEGFEPNVPSVTQRVETFRELSEMIGKERVIWRFDPLIMTPSITPRVLLSRIWKIGNLLKGYTDKLVFSFVDVKAYRKVQNNLIKETNCFTKEDVETAEMNATQRQETVEGLVKLREIWASTGWNVTLATCAEDIDLTVYGIEHNRCIDGDLMERVFEEDYELVYYLRTGQLPEPDLFGTFPALPDKRKDLKDKGQRKACGCMISKDIGRYNTCRHFCVYCYANTSRECVQKNAVHYSDDSESLIRS,not soluble
6,MAHHHHHHMHTFYTIRYPPPNSQKGGEDSQPIRVTNKAMESLLFCIVHSIEFQSPLQPSRPQLGSSIGSSGKDSITDDEAYVRPVENSSMLLGNVTYVSRSKHKPSVLASLHTAVEAARAIQIPEKSSQVPFELRVRLLRRHRGWLWHDSRPLVEWVFRMAKTREEFSFSTTHGDASERPRPRTSPRATNAHANVVRATGGGGVHSRSREDGLVCSNDPEQIRQVLQFILKHSYDAIDLNTYADFRSGELIFDVSVQEV,not soluble
7,MFDPKKLEQIAKQIHDSMPAPVKELGADVDQKVRQVIQGQLNKLDVVSREEFDVQTQVLLRTRQKLTEMEKKLSELEEKLADK,not soluble
8,MLHAKIETLGVDPQNGSVVVLLRTENDKLLPIVIGPLEAHHIVVALQGEKPPRPLTPDLLLSVMEMLQAKLKRVEIVDLRDGTFYARLILEHRGIELEVDARPSDAMALALRAGAPILVAEEVVEKAGVEEANIRPHGAAEA,soluble
9,MELRVGNRYRLGRKIGSGSFGDIYLGTDIAAGEEVAIKLECVKTKHPQLHIESKIYKMMQGGVGIPTIRWCGAEGDYNVMVMELLGPSLEDLFNFCSRKFSLKTVLLLADQMISRIEYIHSKNFIHRDVKPDNFLMGLGKKGNLVYIIDFGLAKKYRDARTHQHIPYRENKNLTGTARYASINTHLGIEQSRRDDLESLGYVLMYFNLGSLPWQGLKAATKRQKYERISEKKMSTPIEVLCKGYPSEFATYLNFCRSLRFDDKPDYSYLRQLFRNLFHRQGFSYDYVFDWNMLKFGASRAADDAERERRDREERLRH,soluble
10,MKQFSGLSRTIQGNHLLDTCAIDILKIGHRPLVLCAKQEYNTTVESFVKVLTCHGLIVKIVYMEEWDQNSVEECGEVGFRHRADHIIGIGNSSVAACTKAVADLLDLPAVLIPTSPFTTLPWVSVENKKRERPLFNESIQLIIADREQLLTQPTSELINGVVNTLLYLAAIKEVKRNHLFSLVDDILIRSFESVLLRGSLQAIEDFEARILSKEVQDVLEVLSTCVTLDLPSDAWDVIQQIESKLSERREDLVDEPLKRNVVLYLLLSYLTQESEEFQARLKWCQQLLLSANSSNLLSLEAVLKEIALEMGEDGSTRC,soluble
11,MSLMPLLDKLREQYGVGPVCSELHIAPSTYYHCQQQRHHPDKRSARAQHDDWLKREIQRVYDENHQVYGVRKVWRQLLREGIRVARCTVARLMAVMGLAGVLRGKKVRTTISRKAVAAGDRVNRQFVAERPDQLWVADFTYVSTWQGFVYVAFIIDVFAGYIVGWRVSSSMETTFVLDALEQALWARRPSGTIHHSDKGSQYVSLAYTERLKEAGLLASTGSTGDSYDNAMAESINGLYKAEVIHRKSWKNRAEVELATLTWVDWYNNRRLLGRLGHAPPAEAEKAYYASIGNDDLAAEGHHHHHH,not soluble
12,DITEIEEAMNRQRVAGRVFEASQDGLIVLNHKGVITMVNPAVTKLVGLEIDQLVGQSFIQTIRWRKLQEMMPSIIESIENYGVWQGEVIEQNHLGLLVPMFARVNRIVKCENNGFYDLVIILTD,not soluble
13,MGSDKIHHHHHHMEFSPPLQRATLIQRYKRFLADVITPDGRELTLHCPNTGAMTGCATPGDTVWYSTSDNTKRKYPHTWELTQSQSGAFICVNTLWANRLTKEAILNESISELSGYSSLKSEVKYGSERSRIDFMLQADSRPDCYIEVKSVTLAENEQGYFPDAVTERGQKHLRELMSVAAEGQRAVIFFAVLHSAITRFSPARHIDEKYAQLLSEAQQRGVEILAYKAEISAEGMALKKSLPVTL,not soluble
14,MGSDKIHHHHHHMVGNYRGMGRFARQLVEPVGASVLGLAPSGVHADEWPCVSQGHGFFPWWEQVELPRLCREQRLDYLLCPYNTGPLRSTGNTRVVAVIHDLIYMEPWHVLPPARSVYQTVGRVYRRHVVPRLVRRADVVLTVSRFTQRELVKKFELREGDVRVVPCTISDDWFEPPVSRTARQPYLFTVAGEVPSKNVGRLLQAFAIARPALGDDARLRIAGIKAEHHAHFLGLADSLGLTNAVELLGYVSREELREQYRQARAFVFASLFEGFGIPLLEAMASGTPVACSNTTSMPEIAGNCALQFDPRSVEDMAEQIRAIWDDSARFEVALGDGVNRARTYSESAVRPSIEDFWAGLA,not soluble
15,MEEAKQKVVDFLNSKSGSKSKFYFNDFTDLFPDMKQREVKKILTALVNDEVLEYWSSGSTTMYGLKGAGKQAAAEHED,soluble
16,MELGKQRPVVYVVSDSVGETAELVVKAAASQFSGAGIEVRRIPYVEDKETVDEVIQLAKQADAIIAFTLVVPGIRTYLLEKATEAKVETVDIIGPMLEKISSLTKEEPRYEPGIVYRLDEDYFRKVEAIEFAVKYDDGRDPRGIVRADLVLIGVSRTSKTPLSQYLAHKRLKVANVPLVPEVEPPEELFKLSPKKVIGLKISPEQLNGIRAERLKTLGLKSQANYANIDRIKEELAYAEGIMKRIGCPVIDVSNKAVEETANLISSMFQKMAGDPLEHHHHHH,soluble
17,MATLDHLLEELFEACSVFDKFPVSFNRTLIDELVDCLDFEEPTLTVIRKFVRNLDFEGKLAPIRMVIRLLDAAIKNNKFRNEDDLLLEFIQKSEAILSRPRNRLLLQDLFNFYTNPVVFAVREPESWLVVIRWVMNEFADEYLSCFHIDLFVKFICQIPSAAEARRLNIISEAISPDLVGSFSARIIYNYAQDLTIDECNTFVNNFRLSSLGYRWPAIRVLLKMRELHPSLVIPLAPASWTEENRRVDVICRLLFPMDFDTLKMMDVQLENVEALVDSVLDSPVDIDLKEKMLDHMNERQFEKYFDELLSFAKIESNDVNIHVTSALRSLPQHATRQKVAQLFEALGDKILDLALILNLSLAYGSNAFDFPEFEKFKDRYSKLVSDAIKAPVGESNAERIITVLECMKLFPCFLPVKADETAVYLDFSNSLTLNEKGAREVPVKTTGHEKMHVTVLLTARADGYKCRPYVLLPRTRPDKEIAARFKNSLQLSWCNRTFFNDEVTEDYLNTIIGPPFFGKRLLAWDAFRCHISDATKRVLKNLKVDTAVVPGGCTKFVQAPDVYWNSPFKASIRRSYEDWMVHGQKSFTKSNNMRPPSMLQYLEWIENAWNDLPKDLILKSFKGCALTIATDGSEDNQIHCFAPNGSIPSGLDLLNSTRIENSLVDLVQDIGIDESQEEGNESDNSIISVG,not soluble
18,MKPLLETIDTRFGTTNKHAFSRGNTLPYTGVPFGMNYFVPQTSDQDGSWFFDPHLPIFQGIRLTHQPSPWIGDYSWLLLTPVTSQLGGDSLFHRQSSYDIDKACFQPHYLKLFSLRYQIETQLTPTCYGASIRLNQKQGKALSLYLHAADELTVEQVDKRTLALRQEGKTETNKNSLTMFTLEHHHHHH,not soluble
19,MDTKPPIERSMYIELRTSLEMFRGDLVDLEALANASRDALDQLPFVPKGAKTDHDEAHPNPDPESALRSGRLDSLVCATASAAQSALVTCVKLIDWAYEYEPDDEDDDDDDMVPMDDIDDDDDDDDDDENGGSSGANGGGSNGSGRSGPPDDNGAGAASASVADEFANARPSRGGIVLDLPTRASTTDGPVDAR,not soluble
20,MDGDGSSFEQFIMPPSALDRLASLHIEYPMLFQLSNVSVEKTSHCGVLEFTADEGLVYLPYWMMQNMSLEEGDVMQVKNISLVKGTYIKLQPHTQDFLDISNPKAILETTLRSYSCLTTGDTIMVPYNNKQYYINVVEAKPSSAVSIIETDCEVDFAPPLDYKEPEKPQKLTPSNKRPLQVKEEEEPASKVPKFTPFTGSGKRLDGKAQTQTEPEDTKQQEKPTENGKDDEKLSVTTPRQISGKLVFGSNSKSAAKETAKVDDPKNIVQESSTKSDEAKFKVFTGKKYSLNG,soluble
21,MSLQPALGVLVASSQPLDQYVVRHPDFFADASPEHARTAPDQPLILFDHIRCAAFELPFIASEPFGPIDPLVFLEVLAESEVIHQEGDRWEWIADSYPATAVSLRSVADGNFVVVDKSDGKQQIIAEVDYSAAALTLYEGAIHMVQSRPYQVERLDWAGRKAYVTRTHVDYYTDSIDYTKLKVLDRFDGGVAGRGDSHHGEVHVVRRVSGYKKIRYYTHENIGYGPVNLPDQELHTTAVWWQLPQATLGKAFEGHHHHHH,soluble
22,MEQIHGGDSNSGGGGGGSSRNDEISVTRASRFDALPEDCISKVISHTSPRDACVVASVSKSVKSAAQSDLVWEMFLPSEYSSLVLQSANHLSKKEIFLSLADNSVLVENGKKSFWVEKASGKKCYMLSAMELTIIWGDSPAYWKWITVPESKFEKVAELRNVCWFEVRGKISCGMLSKGTHYSVYVVFKTANGRSYGFDLVPVEAGVGFVGKVATKKSVYFESGNADSRSATSHYSGISEEEEEVEGERERGMNVVGPKERVDGWSEVELGKFYINNGGCGDDGSDEIEISIMETQNGNWKSGLIIQGIEIRPERSN,soluble
23,MLPHSGRMVLIDRITRYGDDFVEAGAQVKPDHILLAGGMLPYTAFIELMAQAVGAYAGIQARKNARPVRLGFLPGTRKLEIFAQSVPVGTHLPATAHMSIQDAGVWACPTANCVGRMRRKLRPEHSFQTAFWHAPHSTCTAPNTMTEQLTPSEQAHIRRTTMTETVLITGSNRGIGKAAALEHHHHHH,not soluble
